According to US20060078559A1 (EUROSCREEN S A, published 2006):
Where no end group is shown, it is not given here. [ ]: non-standard residue; d: D form. The star is where a group is joined. For = O=C*

Columns and labels:
[1] = molecular target: T1, human formyl peptide receptor-like 2 (FPRL2) (human) (UniProt P25089); assay: cell-based or functional assay
T1 sequence: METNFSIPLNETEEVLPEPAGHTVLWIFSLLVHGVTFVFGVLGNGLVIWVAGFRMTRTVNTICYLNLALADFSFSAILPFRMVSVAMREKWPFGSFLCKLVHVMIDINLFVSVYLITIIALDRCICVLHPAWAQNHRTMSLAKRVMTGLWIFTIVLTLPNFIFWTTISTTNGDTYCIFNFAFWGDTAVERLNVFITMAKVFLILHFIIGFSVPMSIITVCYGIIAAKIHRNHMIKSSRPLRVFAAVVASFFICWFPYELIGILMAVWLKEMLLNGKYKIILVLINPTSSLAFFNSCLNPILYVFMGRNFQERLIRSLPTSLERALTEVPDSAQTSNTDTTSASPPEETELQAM

[2] = molecular target: T1, human formyl peptide receptor-like 2 (FPRL2) (human); assay: competition binding on FPRL2-expressing CHO-K1 cells, tracer F2L-[125I]Tyr
[3] = molecular target: T2, human FPR (formyl peptide receptor) (human, UniProt P21462 1-350); assay: cell-based or functional assay
T2 chain: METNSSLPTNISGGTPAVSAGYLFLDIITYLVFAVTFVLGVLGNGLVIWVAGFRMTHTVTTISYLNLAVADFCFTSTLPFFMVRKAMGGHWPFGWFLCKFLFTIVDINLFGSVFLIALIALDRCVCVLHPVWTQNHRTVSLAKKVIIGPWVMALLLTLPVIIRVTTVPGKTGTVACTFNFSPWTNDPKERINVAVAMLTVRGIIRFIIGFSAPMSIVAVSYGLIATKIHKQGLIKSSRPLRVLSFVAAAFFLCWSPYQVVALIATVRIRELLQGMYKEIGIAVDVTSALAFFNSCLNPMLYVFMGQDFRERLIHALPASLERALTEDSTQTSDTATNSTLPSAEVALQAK

[4] = molecular target: T2, human FPR (formyl peptide receptor); assay: cell-based or functional assay
human FPRL1 (FPR-like 1) [5] = molecular target: T3, human FPRL1 (FPR-like 1) (human, UniProt P25090 1-351); assay: cell-based or functional assay
T3 sequence: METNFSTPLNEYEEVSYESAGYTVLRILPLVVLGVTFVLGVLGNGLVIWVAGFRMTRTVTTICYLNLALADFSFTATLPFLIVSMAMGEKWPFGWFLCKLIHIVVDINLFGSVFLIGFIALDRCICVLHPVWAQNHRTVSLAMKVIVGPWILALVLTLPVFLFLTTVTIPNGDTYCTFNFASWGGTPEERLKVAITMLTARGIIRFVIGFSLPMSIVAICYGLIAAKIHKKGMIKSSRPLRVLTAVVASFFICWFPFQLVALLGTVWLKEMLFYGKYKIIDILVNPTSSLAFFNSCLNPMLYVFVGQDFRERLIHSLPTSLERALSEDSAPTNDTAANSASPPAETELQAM

[6] = molecular target: T2, human FPR (formyl peptide receptor); assay: cell-based or functional assay
human FPRL1 (FPR-like 1) [7] = molecular target: T3, human FPRL1 (FPR-like 1); assay: cell-based or functional assay; remark: listed apart in the source
human FPRL1 (FPR-like 1) [8] = molecular target: T3, human FPRL1 (FPR-like 1); assay: cell-based or functional assay; remark: listed apart in the source
[9] = molecular target: T4, human formyl peptide receptor-like 2 (FPRL2) (human, UniProt P25089 1-353); assay: competition binding on FPRL2-expressing CHO-K1 cells, tracer F2L-[125I]Tyr
T4 construct: Expressed on CHO-K1 cells with or without G alpha 16 and apoaequorin; Also detected on monocyte-derived dendritic cells; also called FPR-like 2; FPRL2 receptor
T4 sequence: T1 sequence
Protocol: (§1) FPRL2, FPRL1 and FPR-expressing CHO-K1 cells were plated in 24 wells plates (200,000 cells per well for FPRL2, and 100,000 cells per well for the two other receptors). The next day, the cells were washed twice with a KRH buffer containing 280 mM saccharose and, for FPRL1 and FPR, 0.1% NaN₃. […] Cells were washed twice with ice cold buffer, total radioactivity was recovered with 1 M NaOH and counted in a gamma counter for 2 min.
The EC50 and IC50 parameters of the dose-response curves were determined by non-linear regression using the Graphpad Prism software. The results represent the mean pEC50 or pIC50 (−Log values of EC50 or IC50 expressed in Mol/L) ± s.e.m. for at least three independent experiments (n).

[10] = molecular target: T4, human formyl peptide receptor-like 2 …; assay: cell-based or functional assay
human FPRL1 (FPR-like 1) [11] = molecular target: T3, human FPRL1 (FPR-like 1); assay: competition radioligand binding on FPRL1-expressing CHO-K1 cells, tracer [125I]-WKYMVm
Protocol: as §1

[12] = molecular target: T2, human FPR (formyl peptide receptor); assay: competition radioligand binding on FPR-expressing CHO-K1 cells, tracer [125I]-WKYMVm
Protocol: as §1

[13] = molecular target: T4, human formyl peptide receptor-like 2 …; assay: binding assay on FPRL2-expressing CHO-K1 cells

A1, about 6 kD peptide of porcine heme-binding protein purified from porcine spleen (from UniProt P80015)
EC50, aequorin-based functional assay (native fraction A1) [1]: 200 nM

For-Met-Leu-Phe [FMLP (formyl-methionine-leucyl-phenylalanine)]
pIC50 (binding assay) (-Log of IC50 in Mol/L) [2]: < 6
pEC50 (aequorin assay) (-Log of EC50 in Mol/L) [1]: < 6
pEC50 (cAMP assay) (-Log of EC50 in Mol/L) [1]: < 6
EC50 (read off the curve), inhibition of cAMP accumulation [FPR] [3]: ~0.1 nM
EC50 (read off the curve), aequorin luminescence [FPR] [4]: ~0.7 nM
pEC50 (aequorin assay) (human FPRL1 (FPR-like 1) [5]): 5.94 -Log of EC50 in Mol/L
pEC50 (cAMP assay) (human FPRL1 (FPR-like 1) [5]): < 6 -Log of EC50 in Mol/L
pEC50 (aequorin assay) [6]: 9.39 -Log of EC50 in Mol/L
pEC50 (cAMP assay) [6]: 10.2 -Log of EC50 in Mol/L

MLWRRKIGPQMTLSHAAG (also called CCL23-derived SHAAG peptide) [SHAAG peptide derived from CCL23 N-terminus]
EC50 (read off the curve), inhibition of cAMP accumulation [FPRL1] (human FPRL1 (FPR-like 1) [7]): ~0.7 nM
EC50 (read off the curve), aequorin luminescence [FPRL1] (human FPRL1 (FPR-like 1) [8]): ~0.5 nM
pIC50 (binding assay) [9]: < 6 -Log of IC50 in Mol/L
pEC50 (aequorin assay) [10]: < 6 -Log of EC50 in Mol/L
pEC50 (cAMP assay) [10]: < 6 -Log of EC50 in Mol/L
pEC50 (aequorin assay) (human FPRL1 (FPR-like 1) [5]): 9.27 -Log of EC50 in Mol/L
pEC50 (cAMP assay) (human FPRL1 (FPR-like 1) [5]): 9.23 -Log of EC50 in Mol/L
pEC50 (aequorin assay) [6]: < 6 -Log of EC50 in Mol/L
pEC50 (cAMP assay) [6]: < 6 -Log of EC50 in Mol/L

B1: WKYMVm (peptide)
peptide: WKYMV[dM]
notes: Bought from Phoenix Pharmaceuticals; also called W-hexapeptide; synthetic W peptide
pEC50 (aequorin assay) (-Log of EC50 in Mol/L) [1]: < 6
pEC50 (cAMP assay) (-Log of EC50 in Mol/L) [1]: < 6
IC50 (read off the curve) (human FPRL1 (FPR-like 1) [11]): ~20 nM
IC50 (read off the curve) [12]: ~70 nM
EC50 (read off the curve), aequorin luminescence [FPRL1] (human FPRL1 (FPR-like 1) [8]): ~0.04 nM
EC50 (read off the curve), aequorin luminescence [FPR] [4]: ~0.7 nM
pIC50 (binding assay) [9]: < 6 -Log of IC50 in Mol/L
pEC50 (aequorin assay) [10]: < 6 -Log of EC50 in Mol/L

B2: F2L[7-21] (peptide)
peptide: NSLFGSVETWPWQVL
notes: Synthetic; also called [7-21]F2L; truncated F2L variant lacking the first six aminoacids
binding result [13]: no binding
